Key:
Notch receptor = Notch receptor cleavage (activation) in NSC cultures; assay type: cell-based, mouse; settings: effect of inhibitor; DAPT 1 μM
Procedure: (§1) Cell culture: E13.5 cortical embryonic mouse CNS stem cells were grown as previously described (Johe, et al., Genes Dev 10, 3129-40, 1996). Cells were expanded in serum-free DMEM/F12 medium with N2 supplement and FGF2 (20 ng/ml) for 5 days under 5% oxygen conditions and were re-plated fresh or from frozen stocks at 1,000-10,000 cells per cm^2. FGF2 was included throughout the studies, unless otherwise stated. Adult rat (3-6 months old) or adult mouse (2-4 months old) SVZ NSC cultures were grown in the same medium as the fetal cultures.
(§2) Pharmacological treatments: Unless otherwise stated, the following concentrations were used: Dll4 and Ang-2 (in vitro, 500 ng/ml; in vivo 12.5 μg as a single injection), FGF2 (in vitro, 20 ng/ml), JAK inhibitor (in vitro, 200 nM; in vivo, 250 ng as a single injection), insulin (in vitro, 25 μg/ml; in vivo, 40 μg as a single injection), DAPT (1 μM), Fluorogold (0.5 μg). For the survival assays, compounds were added daily and Notch ligands every 2 days for the duration of the experiment. For the effects of kinase inhibitors on Notch activation, cells were pre-incubated for 1 h prior to Notch activation.
It was previously shown that in NSCs Notch activation leads to rapid phosphorylation of Akt (Androutsellis-Theotokis, A. et al., Nature 442, 823-6, 2006), a mediator of insulin signalling (Cantley, Science 296, 1655-7, 2002). […] Activation of the Notch receptor by addition of insulin or Dll4 was inhibited by DAPT, a γ-secretase inhibitor that blocks Notch cleavage. […] Insulin maintained STAT3-Ser727 phosphorylation levels, and acutely (1-h) induced it following a 16-h insulin withdrawal phase (FIG. 1c).

insulin/IGF-1 receptors = assay: Insulin/IGF-1 receptor activation in NSC cultures; assay type: cell-based, mouse; settings: effect of inhibitor; DAPT 1 μM
Procedure: as §1, §2
It was previously shown that in NSCs Notch activation leads to rapid phosphorylation of Akt (Androutsellis-Theotokis, A. et al., Nature 442, 823-6, 2006), a mediator of insulin signalling (Cantley, Science 296, 1655-7, 2002). […]

mTOR = mTOR phosphorylation in NSC cultures (Western blot); assay type: cell-based, mouse; settings: NSC cultures, 0.5 μg/ml (FIG. 2a, Example 3)
Procedure: as §1
(§3) Fetal NSCs in culture express Ang-1, and treatment (2 days) with Dll4 maintained it whereas CNTF reduced it. Ang-2 expression was maintained under these conditions. […] Ang-2 induced mTOR and STAT3-S727 phosphorylation, unlike Ang-1 (FIG. 2a). Ang-1, however, induced Akt phosphorylation.
Three characterized Tie-2 receptor antibodies were used to determine if the Tie-2 receptor was expressed in the immature neural precursor cells found in the SVZ of the adult brain. When ligand is bound, the Tie-2 receptor becomes phosphorylated. An antibody that recognizes the activated receptor (RnD Systems, AF2720) and another antibody that binds to a distinct site (Santa Cruz, sc-324) identified many positive cells in the subventricular zone of the adult rat brain. In regions that were more distant from the ventricle, Tie-2 was expressed predominantly on blood vessels and endothelial cells reacted with antibodies against the activated receptor. Precursor cells that proliferate in vitro can be readily derived from the fetal and adult brain. The homogeneity of these cell populations in attached culture and their potential to generate neurons and glia is supported by clonal analysis. […] This colony number assay measured the survival of precursor cells that could differentiate into neurons and glia (See, Table 1).

NSC cultures = assay: Incidence of Tie-2 spikes in NSC cultures; assay type: cell-based; settings: for % of cells with at least one spike: NSC cultures; for spike number: thirty minutes after treatment
Procedure: A protrusion of the cell membrane was identified in neuronal stem cells (NSCs) when the Tie-2 receptor is concentrated. This can be visualized using antibodies that bind Tie-2. The protrusion was termed a spike. These spikes appear 30 minutes after treatment with pharmaceutical agents. […] increase spike number thirty minutes after treatment. […] Thus, a novel sub-cellular structure ahs been identified. These structures could regulate the responsiveness of cells to treatments.
Thus, a novel protrusion of the cell membrane in NSCs has been identified where the Tie-2 receptor is concentrated. This can be easily visualized using an antibody against Tie-2 that recognizes a particular epitope. […] Indeed, the spike is devoid of actin filaments or tubulin. The spikes can be detected within thirty minutes of contacting the cultures with an the factors. Thus, the spikes provide a rapid assay for the effect of pharmacologic agents.

Akt = Akt phosphorylation in NSC cultures; assay type: cell-based, mouse; settings: 0.5 μg/ml (FIG. 2a)
Procedure: as §1, §3

Hes3 = Hes3 protein immuno-staining in fetal NSC cultures; assay type: cell-based, mouse; settings: 2 day treatment
Procedure: as §1
Hes3 mRNA is present in fetal NSC cultures under conditions that support their self-renewal but CNTF-induced differentiation (Bonni, A. et al., Science 278, 477-83, 1997; Rajan & McKay, J Neurosci 18, 3620-9, 1998): downregulates Hes3 message (Androutsellis-Theotokis, A. et al., Nature 442, 823-6, 2006). Knockout studies have shown a role of Hes3 in self-renewal (Hatakeyama, J. et al., Development 131, 5539-50, 2004). It was investigated if Hes3 mediates stem cell functions in vitro to assess its use as a functional NSC marker. Fetal (E13.5) cortical tissue was dissociated and magnetic sorting was used to isolate a cell population that expressed AC133, an established marker of NSCs (Uchida, N. et al., Proc Natl Acad Sci USA 97, 14720-5, 2000). […]

Ang-1 = Ang-1 expression in fetal NSC cultures; assay type: cell-based, mouse; settings: fetal NSCs in culture, treatment 2 days
Procedure: as §1, §3

Molecule | Activation of the Notch receptor by addition of insulin or Dll4 (Notch receptor) | Activation of the insulin/IGF-1 receptors by insulin treatment (insulin/IGF-1 receptors) | mTOR phosphorylation (mTOR) | % of cells with at least one spike (NSC cultures) [%] | spike number (NSC cultures) | Akt phosphorylation (Akt) | Hes3 protein expression (Hes3) | Ang-1 expression (Ang-1)
C[C@H](NC(=O)Cc1cc(F)cc(F)c1)C(=O)N[C@H](C(=O)OC(C)(C)C)c1ccccc1 [DAPT, reference compound] | inhibited | partly blocked | – | – | – | – | – | –
Ang-1: human angiopoietin-1 (923-AN) from R&D (protein, UniProt Q15389 16-498, looked up) Angiopoietin-1: HIGCSNQRRSPENSGRRYNRIQHGQCAYTFILPEHDGNCRESTTDQYNTNALQRDAPHVEPDFSSQKLQHLEHVMENYTQWLQKLENYIVENMKSEMAQIQQNAVQNHTATMLEIGTSLLSQTAEQTRKLTDVETQVLNQTSRLEIQLLENSLSTYKLEKQLLQQTNEILKIHEKNSLLEHKILEMEGKHKEELDTLKEEKENLQGLVTRQTYIIQELEKQLNRATTNNSVLQKQQLELMDTVHNLVNLCTKEGVLLKGGKREEEKPFRDCADVYQAGFNKSGIYTIYINNMPEPKKVFCNMDVNGGGWTVIQHREDGSLDFQRGWKEYKMGFGNPSGEYWLGNEFIFAITSQRQYMLRIELMDWEGNRAYSQYDRFHIGNEKQNYRLYLKGHTGTAGKQSSLILHGADFSTKDADNDNCMCKCALMLTGGWWFDACGPSNLNGMFYTAGQNHGKLNGIKWHYFKGPSYSLRSTTMMIRPLDF | – | – | inhibits | 0.8 | do not increase | induced | – | –
CNTF: CNTF (577-NT) from R&D; induces differentiation of NSCs (protein, UniProt P26441 1-200, looked up) Ciliary neurotrophic factor: MAFTEHSPLTPHRRDLCSRSIWLARKIRSDLTALTESYVKHQGLNKNINLDSADGMPVASTDQWSELTEAERLQENLQAYRTFHVLLARLLEDQQVHFTPTEGDFHQAIHTLLLQVAAFAYQIEELMILLEYKIPRNEADGMPINVGDGGLFEKKLWGLKVLQELSQWTVRSIHDLRFISSHQTGIPARGSHYIANNKKM | – | – | – | 0.8 | do not increase | – | lost | reduced
